Measured values reported in paper PMC6342527.
Each block holds one substance with its values, some of them ahead of it.

Columns and labels:
Assay in all cases: cryo-EM structure; single-particle cryo-EM of SEC-purified channel in 20 mM Tris pH 7.5, 50 mM NaCl, 1 mM DDM, 0.1 mM CHS; 1 uM CaCl2 added (Ca2+-bound); homopentamer
[1] = target: chicken BEST1, residues 1-345 (BEST1_(345)) (chicken)
[2] = target: chicken BEST1, residues 1-345, W287F mutant (BEST1_(345) W287F) (chicken)
[3] = target: chicken BEST1, residues 1-405 (BEST1_(405)) (chicken)

stoichiometry N [1]: 5
Substance: chicken BEST1, residues 1-345 (BEST1_(345)) (domain or fragment)

stoichiometry N [2]: 5
Substance: chicken BEST1, residues 1-345, W287F mutant (BEST1_(345) W287F) (domain or fragment)

stoichiometry N [3]: 5
Substance: chicken BEST1, residues 1-405 (BEST1_(405)) (domain or fragment)
